Where no end group is shown, it is not given here. [ ]: non-standard residue; d: D form. pY = N[C@@H](Cc1ccc(OP(=O)(O)O)cc1)C(=O)O
B2: RPA70 N-terminal domain (residues 1-120), purified (other, UniProt P27694 1-120, looked up)
chain: MVGQLSEGAIAAIMQKGDTNIKPILQVINIRPITTGNSPPRYRLLMSDGLNTLSSFMLATQLNPLVEEEQLSSNCVCQIHRFIVNTLKDGRRVVILMELEVLKSAEAVGVKIGNPVPYNE
modifications: Atto488 label
notes: range 1-120; also called RPA70 N-terminal OB1 domain; RPA70N (1-120)

Tests used:
[1] = molecular target: T1, NBS1, endogenous, in HEK293T cell extracts (UniProt O60934 1-754); experiment: Flag-M2 immunoprecipitation from HEK293T cells, unperturbed or 5 Gy IR, western blot
T1 sequence (looked up): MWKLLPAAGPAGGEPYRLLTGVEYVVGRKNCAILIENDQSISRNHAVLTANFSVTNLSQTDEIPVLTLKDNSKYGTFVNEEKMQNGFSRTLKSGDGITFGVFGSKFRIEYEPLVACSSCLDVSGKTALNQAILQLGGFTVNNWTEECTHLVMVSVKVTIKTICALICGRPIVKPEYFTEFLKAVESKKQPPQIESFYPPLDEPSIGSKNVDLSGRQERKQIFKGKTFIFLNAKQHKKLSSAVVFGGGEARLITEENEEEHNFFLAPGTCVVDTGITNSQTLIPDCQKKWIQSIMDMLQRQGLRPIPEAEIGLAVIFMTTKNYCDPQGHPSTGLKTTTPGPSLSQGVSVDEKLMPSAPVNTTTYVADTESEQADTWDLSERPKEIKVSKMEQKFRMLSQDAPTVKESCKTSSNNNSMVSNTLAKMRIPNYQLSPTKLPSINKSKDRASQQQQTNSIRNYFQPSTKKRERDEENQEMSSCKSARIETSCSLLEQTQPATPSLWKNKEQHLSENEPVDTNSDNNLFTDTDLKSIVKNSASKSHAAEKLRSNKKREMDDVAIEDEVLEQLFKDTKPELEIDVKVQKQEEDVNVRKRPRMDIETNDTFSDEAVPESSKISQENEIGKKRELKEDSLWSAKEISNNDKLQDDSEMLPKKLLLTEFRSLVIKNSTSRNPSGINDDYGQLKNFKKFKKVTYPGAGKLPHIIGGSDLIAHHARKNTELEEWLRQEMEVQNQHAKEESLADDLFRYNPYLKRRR

[2] = molecular target: T2, GRB2 (growth factor receptor-bound protein 2), wild-type, full-length, bacterially expressed and purified (UniProt P62993 1-217, Atto488 label where used as the labelled partner in MST); experiment: MST, 50 nM Atto488-labelled RPA70 N-terminal domain (1-120), GRB2 titrated [panel D]
T2 construct: domain: full-length; also called WTGRB2; non-ubiquitinated GRB2

[3] = molecular target: T3, Human MRE11 core (residues 1-411), bacterially expressed and purified (human, UniProt P49959 1-411); experiment: GST pull-down of bacterially expressed, purified human MRE11, western blot [panel C]
T3 construct: range 1-411; the only purified MRE11 described is the 1-411 core; also called human MRE11 (residue 1-411); bacterially purified MRE11
T3 sequence (looked up): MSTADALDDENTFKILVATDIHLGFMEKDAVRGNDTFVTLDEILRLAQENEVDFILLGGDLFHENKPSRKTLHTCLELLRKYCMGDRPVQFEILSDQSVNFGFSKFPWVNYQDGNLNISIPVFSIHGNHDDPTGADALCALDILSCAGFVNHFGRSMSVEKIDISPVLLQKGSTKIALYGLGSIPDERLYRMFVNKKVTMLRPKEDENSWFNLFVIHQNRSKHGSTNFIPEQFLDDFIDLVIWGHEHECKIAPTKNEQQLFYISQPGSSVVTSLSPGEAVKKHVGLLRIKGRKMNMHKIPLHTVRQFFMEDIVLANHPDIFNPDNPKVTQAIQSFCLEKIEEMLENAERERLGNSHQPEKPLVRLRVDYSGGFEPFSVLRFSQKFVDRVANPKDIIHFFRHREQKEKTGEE

[4] = molecular target: T4, RPA70, endogenous, in HEK293T cell extracts (UniProt P27694 1-616); experiment: GST pull-down from HEK293T cell extracts, western blot [panel B]
T4 construct: also called RPA1

[5] = molecular target: T5, GRB2-SH2 domain, purified, Atto488-labelled (UniProt P62993 60-152, limits assumed, Atto488 label); experiment: MST with the Y111 phosphorylated MRE11 peptide
T5 construct: domain: SH2; Individual GRB2 domains generated as described before (Ahmed et al., 2010)

[6] = molecular target: T2, GRB2 (growth factor receptor-bound …); experiment: MST with the Y111 phosphorylated MRE11 peptide
[7] = molecular target: T5, GRB2-SH2 domain, purified, …; experiment: MST, 100 nM Atto488-labelled GRB2-SH2 domain, peptide titrated
[8] = molecular target: T6, Flag-RAD50 expressed in HEK293T cells (UniProt Q92878 1-1312, limits assumed); experiment: Flag-M2 immunoprecipitation from HEK293T cells co-transfected with RFP-GRB2, western blot [panel E]
T6 construct: not shown: Flag tag
T6 sequence (looked up): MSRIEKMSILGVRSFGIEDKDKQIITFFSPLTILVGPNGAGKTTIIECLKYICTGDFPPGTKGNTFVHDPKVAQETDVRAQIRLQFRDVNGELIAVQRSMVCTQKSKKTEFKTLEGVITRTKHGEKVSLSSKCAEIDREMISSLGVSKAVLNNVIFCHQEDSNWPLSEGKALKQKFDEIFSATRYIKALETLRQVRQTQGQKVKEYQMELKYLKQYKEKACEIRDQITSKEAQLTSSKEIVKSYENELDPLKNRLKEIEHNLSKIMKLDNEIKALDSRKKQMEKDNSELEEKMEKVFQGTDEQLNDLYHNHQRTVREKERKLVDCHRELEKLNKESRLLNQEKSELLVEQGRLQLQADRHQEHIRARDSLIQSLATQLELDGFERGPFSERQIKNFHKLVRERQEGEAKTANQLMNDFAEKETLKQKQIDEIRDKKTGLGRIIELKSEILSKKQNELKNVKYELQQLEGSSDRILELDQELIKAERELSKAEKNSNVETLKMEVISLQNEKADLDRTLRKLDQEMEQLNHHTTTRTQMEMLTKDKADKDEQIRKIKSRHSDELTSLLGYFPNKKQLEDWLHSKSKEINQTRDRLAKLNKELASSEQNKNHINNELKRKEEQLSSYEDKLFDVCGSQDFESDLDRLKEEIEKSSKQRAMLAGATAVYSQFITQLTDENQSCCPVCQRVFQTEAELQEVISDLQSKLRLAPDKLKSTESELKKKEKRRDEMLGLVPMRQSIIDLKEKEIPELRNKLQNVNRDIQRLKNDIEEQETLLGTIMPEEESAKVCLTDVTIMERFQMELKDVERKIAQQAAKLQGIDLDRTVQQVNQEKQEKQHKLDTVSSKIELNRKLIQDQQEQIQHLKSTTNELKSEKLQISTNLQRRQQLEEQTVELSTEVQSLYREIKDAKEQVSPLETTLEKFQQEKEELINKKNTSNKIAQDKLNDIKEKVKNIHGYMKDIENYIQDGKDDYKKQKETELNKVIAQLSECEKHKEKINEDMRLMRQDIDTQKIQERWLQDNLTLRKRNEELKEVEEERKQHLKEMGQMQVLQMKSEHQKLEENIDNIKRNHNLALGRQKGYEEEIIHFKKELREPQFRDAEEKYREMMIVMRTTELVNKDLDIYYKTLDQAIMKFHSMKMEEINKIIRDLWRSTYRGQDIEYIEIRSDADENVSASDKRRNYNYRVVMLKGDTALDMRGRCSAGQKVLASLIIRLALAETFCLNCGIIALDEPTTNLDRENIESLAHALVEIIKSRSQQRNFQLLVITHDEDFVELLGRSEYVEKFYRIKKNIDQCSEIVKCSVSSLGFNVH

[9] = molecular target: T7, Flag-tagged POLQ (polymerase theta) overexpressed in HEK293T cells (UniProt O75417 1-2590, limits assumed); experiment: Flag immunoprecipitation from HEK293T cells with or without 5 Gy IR, western blot [panel C]
T7 construct: also called Flag-POLQ; not shown: Flag tag
T7 sequence (O75417 whole entry): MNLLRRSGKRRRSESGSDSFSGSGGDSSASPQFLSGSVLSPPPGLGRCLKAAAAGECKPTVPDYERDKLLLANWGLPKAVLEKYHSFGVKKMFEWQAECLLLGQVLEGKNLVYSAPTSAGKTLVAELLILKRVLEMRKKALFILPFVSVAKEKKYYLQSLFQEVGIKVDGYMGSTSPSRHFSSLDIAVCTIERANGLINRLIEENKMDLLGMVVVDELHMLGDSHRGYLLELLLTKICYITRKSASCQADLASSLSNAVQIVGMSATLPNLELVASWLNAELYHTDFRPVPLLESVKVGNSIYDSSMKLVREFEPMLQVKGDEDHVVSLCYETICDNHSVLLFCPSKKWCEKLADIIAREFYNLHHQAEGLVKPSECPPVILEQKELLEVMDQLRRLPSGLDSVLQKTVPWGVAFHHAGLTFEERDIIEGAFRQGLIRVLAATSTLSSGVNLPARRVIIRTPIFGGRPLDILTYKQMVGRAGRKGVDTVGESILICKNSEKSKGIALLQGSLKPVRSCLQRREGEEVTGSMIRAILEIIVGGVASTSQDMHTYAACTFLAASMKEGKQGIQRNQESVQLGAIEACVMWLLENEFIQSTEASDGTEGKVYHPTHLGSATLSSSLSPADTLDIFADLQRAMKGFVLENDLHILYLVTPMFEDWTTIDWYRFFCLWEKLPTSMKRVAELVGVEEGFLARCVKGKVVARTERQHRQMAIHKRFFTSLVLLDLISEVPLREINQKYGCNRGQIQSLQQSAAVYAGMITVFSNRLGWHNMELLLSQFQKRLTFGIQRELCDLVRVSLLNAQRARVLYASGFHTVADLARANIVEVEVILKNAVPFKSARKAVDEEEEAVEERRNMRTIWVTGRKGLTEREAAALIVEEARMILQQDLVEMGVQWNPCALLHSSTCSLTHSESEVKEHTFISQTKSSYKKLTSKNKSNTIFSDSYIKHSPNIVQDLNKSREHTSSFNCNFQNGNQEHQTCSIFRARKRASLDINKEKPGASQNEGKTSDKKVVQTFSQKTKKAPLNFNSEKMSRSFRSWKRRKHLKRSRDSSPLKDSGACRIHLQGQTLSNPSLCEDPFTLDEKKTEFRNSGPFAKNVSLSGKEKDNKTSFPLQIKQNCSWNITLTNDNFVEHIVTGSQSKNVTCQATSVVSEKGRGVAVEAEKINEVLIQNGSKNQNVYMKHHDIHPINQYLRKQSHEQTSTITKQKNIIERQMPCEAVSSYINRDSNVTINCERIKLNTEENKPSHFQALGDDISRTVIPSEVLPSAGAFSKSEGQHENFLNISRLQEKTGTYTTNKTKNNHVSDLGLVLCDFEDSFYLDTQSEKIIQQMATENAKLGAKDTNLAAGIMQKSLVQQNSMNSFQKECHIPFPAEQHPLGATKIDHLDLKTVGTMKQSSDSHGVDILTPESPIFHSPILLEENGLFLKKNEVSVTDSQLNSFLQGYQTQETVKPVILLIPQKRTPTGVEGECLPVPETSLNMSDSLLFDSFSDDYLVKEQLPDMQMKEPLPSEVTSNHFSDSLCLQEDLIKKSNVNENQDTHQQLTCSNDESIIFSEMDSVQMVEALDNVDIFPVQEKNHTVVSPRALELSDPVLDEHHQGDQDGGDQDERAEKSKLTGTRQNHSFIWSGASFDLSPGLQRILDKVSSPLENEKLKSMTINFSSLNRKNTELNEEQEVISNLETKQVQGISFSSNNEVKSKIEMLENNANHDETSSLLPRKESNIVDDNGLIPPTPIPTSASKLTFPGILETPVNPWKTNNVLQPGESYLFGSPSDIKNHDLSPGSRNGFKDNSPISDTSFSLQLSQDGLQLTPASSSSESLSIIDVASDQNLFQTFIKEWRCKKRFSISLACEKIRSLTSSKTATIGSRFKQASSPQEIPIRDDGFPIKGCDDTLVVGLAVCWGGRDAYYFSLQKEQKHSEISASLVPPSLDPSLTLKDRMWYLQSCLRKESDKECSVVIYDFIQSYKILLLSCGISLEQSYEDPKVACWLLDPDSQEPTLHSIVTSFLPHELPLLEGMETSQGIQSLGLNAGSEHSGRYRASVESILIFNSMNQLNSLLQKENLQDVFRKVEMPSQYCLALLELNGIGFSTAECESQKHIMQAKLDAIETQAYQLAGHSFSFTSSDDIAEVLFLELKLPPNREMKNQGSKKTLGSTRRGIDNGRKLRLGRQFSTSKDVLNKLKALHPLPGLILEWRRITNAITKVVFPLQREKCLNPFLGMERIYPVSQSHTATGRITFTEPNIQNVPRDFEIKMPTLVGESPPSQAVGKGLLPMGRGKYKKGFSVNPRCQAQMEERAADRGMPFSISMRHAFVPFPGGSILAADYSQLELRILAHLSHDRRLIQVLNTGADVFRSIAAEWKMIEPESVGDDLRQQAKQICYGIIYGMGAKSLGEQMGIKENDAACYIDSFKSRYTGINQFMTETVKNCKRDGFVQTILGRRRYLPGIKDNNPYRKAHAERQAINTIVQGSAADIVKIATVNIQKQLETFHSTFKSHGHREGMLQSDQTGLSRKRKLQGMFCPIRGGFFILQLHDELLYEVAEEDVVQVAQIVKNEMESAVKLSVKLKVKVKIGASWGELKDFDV

[10] = molecular target: T8, GRB2 K109R mutant, bacterially expressed and purified (UniProt P62993 1-217, Atto488 label in MST); experiment: MST, 100 nM Atto488-labelled K109R GRB2, peptide titrated
T8 construct: domain: full-length; also called K109RGRB2; K109R GRB2 mutant

[11] = molecular target: T5, GRB2-SH2 domain, purified, …; experiment: MST; 100 nM Atto488-labelled GRB2-SH2 domain, peptide titrated; unphosphorylated MRE11 peptide
[12] = molecular target: B2; experiment: MST, 50 nM Atto488-labelled RPA70 N-terminal domain (1-120), peptide titrated [panel D]

B1: Flag-MRE11 expressed in HEK293T cells (enzyme, UniProt P49959 1-708, looked up)
chain: MSTADALDDENTFKILVATDIHLGFMEKDAVRGNDTFVTLDEILRLAQENEVDFILLGGDLFHENKPSRKTLHTCLELLRKYCMGDRPVQFEILSDQSVNFGFSKFPWVNYQDGNLNISIPVFSIHGNHDDPTGADALCALDILSCAGFVNHFGRSMSVEKIDISPVLLQKGSTKIALYGLGSIPDERLYRMFVNKKVTMLRPKEDENSWFNLFVIHQNRSKHGSTNFIPEQFLDDFIDLVIWGHEHECKIAPTKNEQQLFYISQPGSSVVTSLSPGEAVKKHVGLLRIKGRKMNMHKIPLHTVRQFFMEDIVLANHPDIFNPDNPKVTQAIQSFCLEKIEEMLENAERERLGNSHQPEKPLVRLRVDYSGGFEPFSVLRFSQKFVDRVANPKDIIHFFRHREQKEKTGEEINFGKLITKPSEGTTLRVEDLVKQYFQTAEKNVQLSLLTERGMGEAVQEFVDKEEKDAIEELVKYQLEKTQRFLKERHIDALEDKIDEEVRRFRETRQKNTNEEDDEVREAMTRARALRSQSEESASAFSADDLMSIDLAEQMANDSDDSISAATNKGRGRGRGRRGGRGQNSASRGGSQRGRADTGLETSTRSRNSKTAVSASRNMSIIDAFKSTRQQPSRNVTTKNYSEVIEVDESDVEEDIFPTTSKTDQRWSSTSSSKIMSQSQVSKGVDFESSEDDDDDPFMNTSSLRRNRR
notes: not shown: Flag tag
B1: binds [1].

Work on B2 yielded a Kd [2] of 1.6 µM.

B3: GST-fused GRB2 N-terminal SH3 (nSH3) domain (other, UniProt P62993 1-58, looked up)
chain: MEAIAKYDFKATADDELSFKRGDILKVLNEECDQNWYKAELNGKDGFIPKNYIEMKPH
notes: domain: N-terminal SH3 (nSH3); not shown: glutathione S-transferase (GST)
B3: no binding [3].

B4: GST-fused GRB2 C-terminal SH3 (cSH3) domain (other, UniProt P62993 156-217, looked up)
chain: QQPTYVQALFDFDPQEDGELGFRRGDFIHVMDNSDPNWWKGACHGQTGMFPRNYVTPVNRNV
notes: domain: C-terminal (cSH3); not shown: glutathione S-transferase (GST)
B4: no binding [4].

B5: Tyrosine-phosphorylated MRE11 peptide WVNpYQDGNLN (peptide)
peptide: WVN[pY]QDGNLN
modifications: not fully specified
notes: also called Y111 phosphorylated MRE11 peptide; tyrosine phosphorylated peptide
Binder B5 has a Kd [5] of 46.8 µM and a Kd [6] of 19.7 µM.

B6: Phosphorylated H2AX peptide PSGGKKATQASQE(pY) (pY142 only) (peptide)
peptide: PSGGKKATQASQEX
modifications: phosphotyrosine at position 14 (Y142 of H2AX)
notes: Synthetic, from GenScript; also called pY142 H2AX
B6: no binding (tested: about 50 µM) [7].

B7: MRE11, endogenous, in extracts of human cell lines (HEK293T, HeLa, U2OS) (enzyme, UniProt P49959 2-708, looked up)
chain: STADALDDENTFKILVATDIHLGFMEKDAVRGNDTFVTLDEILRLAQENEVDFILLGGDLFHENKPSRKTLHTCLELLRKYCMGDRPVQFEILSDQSVNFGFSKFPWVNYQDGNLNISIPVFSIHGNHDDPTGADALCALDILSCAGFVNHFGRSMSVEKIDISPVLLQKGSTKIALYGLGSIPDERLYRMFVNKKVTMLRPKEDENSWFNLFVIHQNRSKHGSTNFIPEQFLDDFIDLVIWGHEHECKIAPTKNEQQLFYISQPGSSVVTSLSPGEAVKKHVGLLRIKGRKMNMHKIPLHTVRQFFMEDIVLANHPDIFNPDNPKVTQAIQSFCLEKIEEMLENAERERLGNSHQPEKPLVRLRVDYSGGFEPFSVLRFSQKFVDRVANPKDIIHFFRHREQKEKTGEEINFGKLITKPSEGTTLRVEDLVKQYFQTAEKNVQLSLLTERGMGEAVQEFVDKEEKDAIEELVKYQLEKTQRFLKERHIDALEDKIDEEVRRFRETRQKNTNEEDDEVREAMTRARALRSQSEESASAFSADDLMSIDLAEQMANDSDDSISAATNKGRGRGRGRRGGRGQNSASRGGSQRGRADTGLETSTRSRNSKTAVSASRNMSIIDAFKSTRQQPSRNVTTKNYSEVIEVDESDVEEDIFPTTSKTDQRWSSTSSSKIMSQSQVSKGVDFESSEDDDDDPFMNTSSLRRNRR
B7: binds [8]; binds [9].

B8: Phosphorylated H2AX peptide PSGGKKATQA(pS)QEY (pS139 only) (peptide)
peptide: PSGGKKATQAXQEY
modifications: phosphoserine at position 11 (S139 of H2AX)
notes: Synthetic, from GenScript; also called pS139 H2AX
B8: no binding [7].

B9: MRE11 peptide WVNYQDGNLN (peptide)
peptide: WVNYQDGNLN
B9 was tested, and the Kd [10] was > 200 µM and the Kd [11] was 33 µM.

B10: GRB2 OB1 peptide KYDFKATADDELSFKRG (peptide)
peptide: KYDFKATADDELSFKRG
notes: Synthetic, from GenScript; also called GRB2-derived OB1 peptide
B10 gave a Kd [12] of 2.1 µM.

— patent publication US20230366033A1 (University of Texas, published 2023)
